The source of these data is article PMC2779587, “Domain Requirements and Sequence Specificity of DNA Binding for the Forkhead Transcription Factor FOXP3”.

Some results are limits rather than exact numbers.

In one data set the target is FOXP3 full length (human, UniProt Q9BZS1 1-431). The data set can be described thus: EMSA; 12 mM HEPES pH 7.5, 100 mM NaCl, 1 mM DTT, 1 mM EDTA, 12% glycerol, 20 µg/ml poly(dI)-poly(dC), room temperature 20 min. Conditions: protein: ivt; chain copies: 2; label: 32P 5' end; blunt. On the technique in general: A gel shift assay detects complexes by their altered migration in electrophoresis.

The target in the next data set is FOXP3-ΔN delE251 (human, UniProt Q9BZS1 182-431, del251-251). The description is as above. Conditions: protein: ivt; chain copies: 2; label: 32P 5' end; blunt.
In the next data set the target is FOXP3-ΔN delK250 (human, UniProt Q9BZS1 182-431, del250-250). The data set is described as above. The conditions noted are these: protein: ivt; chain copies: 2; label: 32P 5' end; blunt.
Another data set has as its target FOXP3-ΔN ΔFKH (human, UniProt Q9BZS1 182-336). The data set is described as above. The conditions noted are these: protein: ivt; label: 32P 5' end; blunt.
The next data set addresses FOXP3-ΔN C204S (human, UniProt Q9BZS1 182-431, C204S). Nature of the data set: EMSA; not influenced by mutation; 12 mM HEPES pH 7.5, 100 mM NaCl, 1 mM DTT, 1 mM EDTA, 12% glycerol, 20 µg/ml poly(dI)-poly(dC), room temperature 20 min. Conditions: protein: ivt; chain copies: 2; label: 32P 5' end; blunt.
The target in data set [1] is T1, FOXP3-ΔN (human, UniProt Q9BZS1 182-431). Nature of the data set: EMSA; binding more than doubled; 12 mM HEPES pH 7.5, 100 mM NaCl, 1 mM DTT, 1 mM EDTA, 12% glycerol, 20 µg/ml poly(dI)-poly(dC), room temperature 20 min. The conditions noted are these: protein: ivt; chain copies: 2; label: 32P 5' end; blunt.
In data set [2] the target is T1, FOXP3-ΔN. The data set can be described thus: EMSA; 12 mM HEPES pH 7.5, 100 mM NaCl, 1 mM DTT, 1 mM EDTA, 12% glycerol, 20 µg/ml poly(dI)-poly(dC), room temperature 20 min. The conditions noted are these: protein: ivt; chain copies: 2; label: 32P 5' end; blunt.
Data set [3] has as its target T1, FOXP3-ΔN. The data set is described as above. The conditions noted are these: protein: ivt; chain copies: 2; label: 32P 5' end; blunt. This is another data set of the same source.
Data set [4] concerns the target T1, FOXP3-ΔN. Described as above. The conditions noted are these: protein: ivt; chain copies: 2; label: 32P 5' end; blunt. This is another data set of the same source.
The target in the next data set is Foxp1A full length (mouse, UniProt P58462 1-705). The description is as above. The conditions noted are these: protein: ivt; tags: HA; chain copies: 2; label: 32P 5' end; blunt.
The target of another data set is T2, FOXP3 FKH domain (UniProt Q9BZS1 337-423).
T2 sequence: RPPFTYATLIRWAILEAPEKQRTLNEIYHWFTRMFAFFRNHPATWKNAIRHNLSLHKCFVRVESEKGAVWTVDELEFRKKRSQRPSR
Described as above. The conditions noted are these: chain copies: 2; label: 32P 5' end; blunt.

FOXP3 full length, sequence (Q9BZS1 whole entry): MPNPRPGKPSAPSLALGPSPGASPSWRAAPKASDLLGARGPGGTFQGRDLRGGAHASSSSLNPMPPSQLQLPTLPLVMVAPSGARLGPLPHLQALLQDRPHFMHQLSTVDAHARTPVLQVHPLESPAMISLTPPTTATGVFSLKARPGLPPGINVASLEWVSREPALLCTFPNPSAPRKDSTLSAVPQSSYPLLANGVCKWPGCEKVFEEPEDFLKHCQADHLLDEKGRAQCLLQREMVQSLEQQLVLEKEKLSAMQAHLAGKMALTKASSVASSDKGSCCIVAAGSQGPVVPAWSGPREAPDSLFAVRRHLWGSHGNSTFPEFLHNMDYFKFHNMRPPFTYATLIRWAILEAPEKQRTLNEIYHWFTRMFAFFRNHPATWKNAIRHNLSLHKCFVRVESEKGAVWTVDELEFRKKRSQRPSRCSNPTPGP
T1 sequence (Q9BZS1 182-431, stated change not applied): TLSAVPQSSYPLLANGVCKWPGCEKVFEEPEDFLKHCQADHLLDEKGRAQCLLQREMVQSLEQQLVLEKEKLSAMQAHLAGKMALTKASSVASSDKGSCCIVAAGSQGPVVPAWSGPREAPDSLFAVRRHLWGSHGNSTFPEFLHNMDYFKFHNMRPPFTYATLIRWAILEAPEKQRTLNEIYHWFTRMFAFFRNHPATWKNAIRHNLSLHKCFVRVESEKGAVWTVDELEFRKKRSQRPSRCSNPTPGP
FOXP3-ΔN delK250, sequence (Q9BZS1 other isoform, or with tags, fused parts or gaps del250-250 | mutant): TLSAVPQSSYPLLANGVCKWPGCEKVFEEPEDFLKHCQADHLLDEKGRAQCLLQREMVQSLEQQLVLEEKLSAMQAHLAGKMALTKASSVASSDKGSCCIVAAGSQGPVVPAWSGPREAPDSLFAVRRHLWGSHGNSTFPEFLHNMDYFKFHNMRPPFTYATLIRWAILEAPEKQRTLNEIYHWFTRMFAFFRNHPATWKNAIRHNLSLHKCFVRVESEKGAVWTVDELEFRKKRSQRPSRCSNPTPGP
FOXP3-ΔN ΔFKH, sequence (Q9BZS1 182-336, stated change not applied): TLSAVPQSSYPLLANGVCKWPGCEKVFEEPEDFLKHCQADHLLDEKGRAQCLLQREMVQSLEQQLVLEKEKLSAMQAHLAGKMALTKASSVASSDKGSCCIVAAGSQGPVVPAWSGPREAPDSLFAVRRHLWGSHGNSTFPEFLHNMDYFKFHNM
FOXP3-ΔN delE251, sequence (Q9BZS1 other isoform, or with tags, fused parts or gaps del251-251 | mutant): as the sequence (Q9BZS1 other isoform, or with tags, fused parts or gaps del250-250 | mutant) above, with E69K counted along it
Foxp1A full length, sequence (P58462 whole entry, the tested form may be a part): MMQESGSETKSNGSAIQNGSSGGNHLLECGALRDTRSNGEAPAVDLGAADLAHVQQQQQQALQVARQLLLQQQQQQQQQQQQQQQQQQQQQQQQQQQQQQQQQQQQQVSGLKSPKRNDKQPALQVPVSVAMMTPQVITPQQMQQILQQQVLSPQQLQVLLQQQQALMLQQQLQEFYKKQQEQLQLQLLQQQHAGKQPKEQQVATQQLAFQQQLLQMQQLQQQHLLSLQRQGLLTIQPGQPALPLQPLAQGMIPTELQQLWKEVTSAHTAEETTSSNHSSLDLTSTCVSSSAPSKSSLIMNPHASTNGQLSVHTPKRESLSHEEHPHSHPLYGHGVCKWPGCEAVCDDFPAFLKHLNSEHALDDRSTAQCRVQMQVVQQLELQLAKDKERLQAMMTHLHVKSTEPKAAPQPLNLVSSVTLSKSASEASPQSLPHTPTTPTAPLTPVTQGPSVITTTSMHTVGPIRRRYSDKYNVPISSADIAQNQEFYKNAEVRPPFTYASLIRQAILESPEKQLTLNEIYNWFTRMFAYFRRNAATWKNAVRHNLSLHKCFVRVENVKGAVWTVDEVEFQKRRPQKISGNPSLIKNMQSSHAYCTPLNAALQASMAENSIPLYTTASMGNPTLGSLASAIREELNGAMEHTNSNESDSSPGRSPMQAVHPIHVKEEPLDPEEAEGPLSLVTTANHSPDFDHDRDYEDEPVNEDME
FOXP3-ΔN C204S, sequence (Q9BZS1 182-431 C204S): as the sequence (Q9BZS1 182-431, stated change not applied) above, with C23S counted along it

B1: A' (A1-A1) (dsDNA)
DNA 1: CAAGGTAAACAAGACAACGTAAACAA
DNA 2: TTGTTTACGTTGTCTTGTTTACCTTG
B1: the binding result in the data set with FOXP3 full length is “no binding”; in the data set with FOXP3-ΔN delE251, “no binding”; with FOXP3-ΔN delK250 it was “no binding”; with FOXP3-ΔN ΔFKH, “no binding”; with FOXP3-ΔN C204S, “binds”. Besides, the binding signal with FOXP3-ΔN [1] is above 2 fold versus A probe.

B2: A' (AT) (dsDNA)
DNA 1: CAAGATAAACAAGACAACATAAACAA
DNA 2: TTGTTTATGTTGTCTTGTTTATCTTG
With B2, the binding signal with FOXP3-ΔN [2] was < 0.5 fold versus A' (GT).

B3: A' (GC) (dsDNA)
DNA 1: CAAGGCAAACAAGACAACGCAAACAA
DNA 2: TTGTTTGCGTTGTCTTGTTTGCCTTG
For the molecule B3, the binding result with FOXP3-ΔN [3] is on record as “no binding”.

B4: A' (35 bp), 20-bp spacing (dsDNA)
DNA 1: CAAGGTAAACAAGACAACACGATTGTAAACAAGTC
DNA 2: GACTTGTTTACAATCGTGTTGTCTTGTTTACCTTG
B4 returned a binding signal in the data set with FOXP3-ΔN [4] of around 3 fold versus 14-bp spacing.

B5: A' (25 bp), 10-bp spacing (dsDNA)
DNA 1: CAAGGTAAACAAGAGTAAACAAGTC
DNA 2: GACTTGTTTACTCTTGTTTACCTTG
In turn, B5 registered a binding signal with FOXP3-ΔN [4] of around 3 fold versus 14-bp spacing.

B6: A (A1-A2) (dsDNA)
DNA 1: CAAGGTAAACAAGACAACACAAATAA
DNA 2: TTATTTGTGTTGTCTTGTTTACCTTG
Regarding B6, the values for the binding result with Foxp1A full length, with FOXP3 FKH domain and with FOXP3 full length were “binds”, “no binding” and “no binding”, respectively.

B7: A'' (A2-A2) (dsDNA)
DNA 1: CAAGACAAATAAGACAACACAAATAA
DNA 2: TTATTTGTGTTGTCTTATTTGTCTTG
With B7, the binding result with FOXP3 full length and with FOXP3-ΔN [3] was “no binding” each time.
